The text below walks through data of patent publication US20230407373A1 (priority 2020, published 2023).

This test has as its system HCoV-OC43 gRNA and sgRNA. It is filed as binding.

B1: G3BP2: host protein of the core SARS-CoV-2 RNA interactome (protein, UniProt Q9UN86 2-482, looked up)
Ras GTPase-activating …: VMEKPSPLLVGREFVRQYYTLLNKAPEYLHRFYGRNSSYVHGGVDASGKPQEAVYGQNDIHHKVLSLNFSECHTKIRHVDAHATLSDGVVVQVMGLLSNSGQPERKFMQTFVLAPEGSVPNKFYVHNDMFRYEDEVFGDSEPELDEESEDEVEEEQEERQPSPEPVQENANSGYYEAHPVTNGIEEPLEESSHEPEPEPESETKTEELKPQVEEKNLEELEEKSTTPPPAEPVSLPQEPPKAFSWASVTSKNLPPSGTVSSSGIPPHVKAPVSQPRVEAKPEVQSQPPRVREQRPRERPGFPPRGPRPGRGDMEQNDSDNRRIIRYPDSHQLFVGNLPHDIDENELKEFFMSFGNVVELRINTKGVGGKLPNFGFVVFDDSEPVQRILIAKPIMFRGEVRLNVEEKKTRAARERETRGGGDDRRDIRRNDRGPGGPRGIVGGGMMRDRDGRGPPPRGGMAQKLGSGRGTGQMEGRFTGQRR
As for B1, the “background (unweighted spectral count, no-probe control)” value is 1; the “target (unweighted spectral count)” value is recorded as 4; the “target (unweighted spectral count, OC43 Probe II capture)” value is recorded as 4; the “target (unweighted spectral count, OC43 Probe II)” value is reported as 9.
